# Source: patent US20240262922A1 (Merck KGaA, published 2024)
# T1: recombinant human OX40L protein (R&D Systems, cat. #1054-OX) (human, UniProt P23510 51-183)
# T1 construct: Bought soluble recombinant protein; also called rhOX40L; recombinant soluble OX40L
# T1 sequence: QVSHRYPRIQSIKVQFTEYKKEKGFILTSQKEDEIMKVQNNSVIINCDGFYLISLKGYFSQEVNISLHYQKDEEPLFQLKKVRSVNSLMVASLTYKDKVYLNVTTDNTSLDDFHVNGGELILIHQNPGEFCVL
# T2: AVI-GST-His6-hOX40L (human, UniProt P23510 51-183)
# T2 sequence: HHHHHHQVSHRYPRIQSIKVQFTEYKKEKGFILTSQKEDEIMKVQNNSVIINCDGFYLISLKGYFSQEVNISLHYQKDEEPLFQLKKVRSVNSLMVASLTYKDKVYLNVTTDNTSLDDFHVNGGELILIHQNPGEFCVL
# What was measured:
# [1] = molecular target: T1, recombinant human OX40L protein (R&D …); experiment: SPR steady state, Biacore T200; OX40L immobilised on CM5, FcFab in solution
# Protocol: Recombinant OX40L proteins (human OX40L protein, R&D systems, cat. #1054-OX; cynomolgus monkey OX40L, Novoprotein cat. #CP72) were immobilized onto Biacore CM5 sensor chips and anti-OX40L antibodies were bound to this surface at a range of concentrations. The response at steady state was measured with a Biacore T200 instrument (GE Healthcare) and plotted against the concentration of antibody and fit to a 1:1 binding model. The steady state KD was determined as the antibody concentration at a response equal to half the maximal response (Rₘₐₓ).
# As with the IgG clones, binding affinity to human OX40L was determined for all twelve FcFabs using steady state affinity assay as described in section 1.1.7 of Example 1. […]
# AVI-GST-His6-hOX40L = molecular target: T2, AVI-GST-His6-hOX40L; experiment: cell-based or functional assay
# [2] = molecular target: T1, recombinant human OX40L protein (R&D …); experiment: cell-based or functional assay
Binder,Kd [1] [nM],OX40L neutralization/OX40-HEK Reporter IC50 (AVI-GST-His6-hOX40L) [nM],Primary T cell activation assay IC50 [2] [nM]
98C01 (FcFab) (antibody) heavy: EPKSSDKTHTCPPCPAPPVAGPSVFLFPPKPKDTLMISRTPEVTCVVVDVSHEDPEVKFNWYVDGVEVHNAKTKPREEQYNSTYRVVSVLTVLHQDWLNGKEYKCAVSNKALPSSIEKTISKAKGQPREPQVYTLPPSREEMTKNQVSLTCLVKGFYPSDIAVEWESNGQPENNYKTTPPVLDSDGSFFLYSKLTVDKSRWQQGNVFSCSVMHEALHNHYTQKSLSLSPGAGGGGSGGGGSGGGGSQVQLQESGPGLVKPSETLSLTCTVSGGSISSSSYYWGWIRQPPGKGLEWIGGIGSVDYSGNTYYKPSLKSRVTISVDTSKNQFSLKLSSVTAADTAVYHCARHRGIYFFDYWGQGTLVTVSSASTKGPSVFPLAPSSKSTSGGTAALGCLVKDYFPEPVTVSWNSGALTSGVHTFPAVLQSSGLYSLSSVVTVPSSSLGTQTYICNVNHKPSNTKVDKRVEPKSC light: SYELTQPPSVSVALGQTARITCGGNNIENKNVHWYQQKPGQAPVLVIYRDSNRPSGIPERFSGSNSGNTATLSINRAQAGDEADYYCQVWDSNTVVFGGGTKLTVLGQPKAAPSVTLFPPSSEELQANKATLVCLISDFYPGAVTVAWKADSSPVKAGVETTTPSKQSNNKYAASSYLSLTPEQWKSHKSYSCQVTHEGSTVEKTVAPTECS,27.8,5.4,
68F03 (FcFab) (antibody) chain 1: EPKSSDKTHTCPPCPAPPVAGPSVFLFPPKPKDTLMISRTPEVTCVVVDVSHEDPEVKFNWYVDGVEVHNAKTKPREEQYNSTYRVVSVLTVLHQDWLNGKEYKCAVSNKALPSSIEKTISKAKGQPREPQVYTLPPSREEMTKNQVSLTCLVKGFYPSDIAVEWESNGQPENNYKTTPPVLDSDGSFFLYSKLTVDKSRWQQGNVFSCSVMHEALHNHYTQKSLSLSPGAGGGGSGGGGSGGGGSQLQLQESGPGLVKPSETLSLTCTVSGGSIDTSSQYWAWIRQPPGKGLEWIGGIYFSGSTYQNPSLKSRVTTSVDTSKNQFSLRLSSMTAADTAVYYCARHRGIYFFDYWGQGTLVTVSSASTKGPSVFPLAPSSKSTSGGTAALGCLVKDYFPEPVTVSWNSGALTSGVHTFPAVLQSSGLYSLSSVVTVPSSSLGTQTYICNVNHKPSNTKVDKRVEPKSC chain 2: SFELTQPLSVSVALGQTARITCGGINIENKNVHYYQQKPGQAPVLVIYRDTNRPSGIPERFSGSNSGNTATLTISRAQAGDEADYYCQVWDSNTVIFGGGTKVTVLGQPKAAPSVTLFPPSSEELQANKATLVCLISDFYPGAVTVAWKADSSPVKAGVETTTPSKQSNNKYAASSYLSLTPEQWKSHKSYSCQVTHEGSTVEKTVAPTECS,33.1,5.5,15.6
98E10 (FcFab) (antibody) heavy: EPKSSDKTHTCPPCPAPPVAGPSVFLFPPKPKDTLMISRTPEVTCVVVDVSHEDPEVKFNWYVDGVEVHNAKTKPREEQYNSTYRVVSVLTVLHQDWLNGKEYKCAVSNKALPSSIEKTISKAKGQPREPQVYTLPPSREEMTKNQVSLTCLVKGFYPSDIAVEWESNGQPENNYKTTPPVLDSDGSFFLYSKLTVDKSRWQQGNVFSCSVMHEALHNHYTQKSLSLSPGAGGGGSGGGGSGGGGSQLQLQESGPGLVKPSETLSLTCTVAGASVSSSSYYWGWIRQSPGKGLEWIGTINYGGSTYHNPSLKRRVTVSVDTSKNQFSLKLTSVTAADTAVYYCARHRGIYHFDYWGQGTLVTVSSASTKGPSVFPLAPSSKSTSGGTAALGCLVKDYFPEPVTVSWNSGALTSGVHTFPAVLQSSGLYSLSSVVTVPSSSLGTQTYICNVNHKPSNTKVDKRVEPKSC light: SYELTQPLSVSVALGQTARITCGGNNIENKNVHWYQQMPGQAPVLVIYRDSNRPSGIPERFSGSNSGNTATLTINRAQAGDEADYYCQVWDSNTVVFGGGTKVTVLGQPKAAPSVTLFPPSSEELQANKATLVCLISDFYPGAVTVAWKADSSPVKAGVETTTPSKQSNNKYAASSYLSLTPEQWKSHKSYSCQVTHEGSTVEKTVAPTECS,33,5.7,5.3
89B09 (FcFab) (antibody) heavy: EPKSSDKTHTCPPCPAPPVAGPSVFLFPPKPKDTLMISRTPEVTCVVVDVSHEDPEVKFNWYVDGVEVHNAKTKPREEQYNSTYRVVSVLTVLHQDWLNGKEYKCAVSNKALPSSIEKTISKAKGQPREPQVYTLPPSREEMTKNQVSLTCLVKGFYPSDIAVEWESNGQPENNYKTTPPVLDSDGSFFLYSKLTVDKSRWQQGNVFSCSVMHEALHNHYTQKSLSLSPGAGGGGSGGGGSGGGGSEVQLVESGPGLVKPSETLSLTCTVSGVSIRSNGYYWGWIRQSPGKGLEWIGNMDYSGTYQNPSLTSRVTISGDASKNQFSLKLRSVTAADTAVYFCARERSNNWYPIDYWGQGTLVTVSSASTKGPSVFPLAPSSKSTSGGTAALGCLVKDYFPEPVTVSWNSGALTSGVHTFPAVLQSSGLYSLSSVVTVPSSSLGTQTYICNVNHKPSNTKVDKRVEPKSC light: SSELTQDPAVSVALGQTVRITCQGDSVRRFFAHWYQQKPGQAPILVISGKDTRPSGIPDRFSGSISGNTASLTITGAQAEDEADYYCNSRDSSGYLVLFGGGTKLTVLGQPKAAPSVTLFPPSSEELQANKATLVCLISDFYPGAVTVAWKADSSPVKAGVETTTPSKQSNNKYAASSYLSLTPEQWKSHKSYSCQVTHEGSTVEKTVAPTECS,44.8,4.7,6.1
88B06 (FcFab) (antibody) chain 1: EPKSSDKTHTCPPCPAPPVAGPSVFLFPPKPKDTLMISRTPEVTCVVVDVSHEDPEVKFNWYVDGVEVHNAKTKPREEQYNSTYRVVSVLTVLHQDWLNGKEYKCAVSNKALPSSIEKTISKAKGQPREPQVYTLPPSREEMTKNQVSLTCLVKGFYPSDIAVEWESNGQPENNYKTTPPVLDSDGSFFLYSKLTVDKSRWQQGNVFSCSVMHEALHNHYTQKSLSLSPGAGGGGSGGGGSGGGGSEVQLLESGGGLVQPGGSLRLSCAASGFTFSNYAMSWVRQAPGKGLEWVSVISGSGDSTYYAESVKGRFTISRDNSKNTLYLQMTSLRAEDTAEYYCAKDRTPVYGLDVWGQGTTVTVSSASTKGPSVFPLAPSSKSTSGGTAALGCLVKDYFPEPVTVSWNSGALTSGVHTFPAVLQSSGLYSLSSVVTVPSSSLGTQTYICNVNHKPSNTKVDKRVEPKSC chain 2: SYELTQPLSVSVALGQTARISCGGNNIGRKNVHWYQQKPGQAPVLVIYGDSNRPSGIPERFSGSNSGNTATLTIGRAQAGDEADYYCQVWDSSTVFGGGTKLTVLGQPKAAPSVTLFPPSSEELQANKATLVCLISDFYPGAVTVAWKADSSPVKAGVETTTPSKQSNNKYAASSYLSLTPEQWKSHKSYSCQVTHEGSTVEKTVAPTECS,35.5,102,> 161
95B06 (FcFab) (antibody) chain 1: EPKSSDKTHTCPPCPAPPVAGPSVFLFPPKPKDTLMISRTPEVTCVVVDVSHEDPEVKFNWYVDGVEVHNAKTKPREEQYNSTYRVVSVLTVLHQDWLNGKEYKCAVSNKALPSSIEKTISKAKGQPREPQVYTLPPSREEMTKNQVSLTCLVKGFYPSDIAVEWESNGQPENNYKTTPPVLDSDGSFFLYSKLTVDKSRWQQGNVFSCSVMHEALHNHYTQKSLSLSPGAGGGGSGGGGSGGGGSEVQLLESGGGLVQPGGSLRLSCAASGFTFSSYAMTWVRQAPGKGLEWVSDISGSGGSTKYADSVKGRFTISRDNPKNTLYLQMNSLRAEDTAVYYCAKDLGFYSTWDTDYWGQGTLVTVSSASTKGPSVFPLAPSSKSTSGGTAALGCLVKDYFPEPVTVSWNSGALTSGVHTFPAVLQSSGLYSLSSVVTVPSSSLGTQTYICNVNHKPSNTKVDKRVEPKSC chain 2: DMQMTQSPSSLSASVGDRVTITCRASQGIRNDLDWYQQKPGKVPKRLIHAASSLQSGVPSRFSGSGSGTEFTLTISSLQPEDFVTYYCLQHNTYPWTFGQGTKLEIKRTVAAPSVFIFPPSDEQLKSGTASVVCLLNNFYPREAKVQWKVDNALQSGNSQESVTEQDSKDSTYSLSSTLTLSKADYEKHKVYACEVTHQGLSSPVTKSFNRGEC,64.1,30.8,38
30F02 (FcFab) (antibody) chain 1: EPKSSDKTHTCPPCPAPPVAGPSVFLFPPKPKDTLMISRTPEVTCVVVDVSHEDPEVKFNWYVDGVEVHNAKTKPREEQYNSTYRVVSVLTVLHQDWLNGKEYKCAVSNKALPSSIEKTISKAKGQPREPQVYTLPPSREEMTKNQVSLTCLVKGFYPSDIAVEWESNGQPENNYKTTPPVLDSDGSFFLYSKLTVDKSRWQQGNVFSCSVMHEALHNHYTQKSLSLSPGAGGGGSGGGGSGGGGSQLQLQESGPGLVKPSETLSLTCTVSGASISSSNHYWGWGWIRQPPGKGLEWIGSIYYSGNTYYNPSLKSRVTISVDTSKNQFSLKLSSVTAADTAVYYCARHRGSYFFDHWGQGTLVTVSSASTKGPSVFPLAPSSKSTSGGTAALGCLVKDYFPEPVTVSWNSGALTSGVHTFPAVLQSSGLYSLSSVVTVPSSSLGTQTYICNVNHKPSNTKVDKRVEPKSC chain 2: SYVLTQPLSVSVALGQTARITCGGNNIGDKNVHWYQQKPGQAPVLVISRDSNRPSGIPERFSGSNSGNTATLTISRAQAGDESDYYCQVWDSSTVVFGGGTKVTVLGQPKAAPSVTLFPPSSEELQANKATLVCLISDFYPGAVTVAWKADSSPVKAGVETTTPSKQSNNKYAASSYLSLTPEQWKSHKSYSCQVTHEGSTVEKTVAPTECS,56,52.8,2.9
